The target of assay [1] is T1, cynomolgus FOLR1 expressed on CHO cells (cAg_126) (cynomolgus, UniProt A0A2K5U044 25-234).
T1 construct: whole, on cells; also called cyFOLR1
The assay can be described thus: flow cytometry on cyFOLR1-transfected CHO cells (cAg_126), on ice, FITC goat anti-human IgG detection. The protocol: (§1) To analyze binding of different antibody constructs to CHO cells transfected with human FOLR1 (cAg_125) and cynomolgus FOLR1 (cAg_126), 1-5×10⁵ were resuspended in 100 μL FACS buffer (PBS (BioWest, cat.: L0615-500) containing 2% heat-inactivated FCS (Invitrogen, cat.: 10500-064), and 0.1% sodium azide (Sigma, cat.: S8032_100G)) in round-bottom 96-well microtiter plates. After washing in FACS buffer, cells were incubated in 50 μL FACS buffer without antibodies or with titrated antibodies starting at a concentration of 1000 nM followed by eleven 3-fold serial dilutions for 40-50 min on ice in the dark. […] After washing, binding was measured by flow cytometry and mean fluorescence intensities (MFI) of cell samples were calculated and corrected for background staining using control cells stained with secondary antibodies only.

The target in assay [2] is T2, human CD16A (158V) expressed on CHO cells (cAg_35) (human, UniProt P08637 17-254).
T2 construct: also called huCD16A (158V)
T2 sequence (P08637 17-254 F176V limits assumed): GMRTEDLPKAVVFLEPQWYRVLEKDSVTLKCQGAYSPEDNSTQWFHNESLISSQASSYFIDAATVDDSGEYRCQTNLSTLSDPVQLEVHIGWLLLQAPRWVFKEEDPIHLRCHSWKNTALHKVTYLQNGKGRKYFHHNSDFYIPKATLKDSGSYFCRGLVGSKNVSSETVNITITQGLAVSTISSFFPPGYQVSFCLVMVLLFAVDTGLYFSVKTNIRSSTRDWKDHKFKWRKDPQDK
Put plainly: flow cytometry on huCD16A (158V) CHO cells (cAg_35), one-site fit of MFI, Exp. 2. Here is the method: (§2) After washing in FACS buffer, cells were incubated in 50 μL FACS buffer without antibodies or with titrated antibodies starting at a concentration of 1000 nM followed by elven 3-fold serial dilutions for 40-50 min on ice in the dark. […] After washing, binding was measured by flow cytometry and mean fluorescence intensities (MFI) of cell samples were calculated and corrected for background staining using control cells stained with secondary antibodies only.
(§3) Equilibrium dissociation constants (KD) of antibody binding were calculated by plotting MFI values and fitting a non-linear regression model for one-site binding to hyperbolic dose-response curves using GraphPad Prism.

In assay [3] the target is T3, cynomolgus CD16 expressed on CHO cells (cAg_36) (cynomolgus, UniProt Q8SPW2 17-254).
T3 construct: whole, on cells; also called cyCD16
T3 sequence (Q8SPW2 17-254): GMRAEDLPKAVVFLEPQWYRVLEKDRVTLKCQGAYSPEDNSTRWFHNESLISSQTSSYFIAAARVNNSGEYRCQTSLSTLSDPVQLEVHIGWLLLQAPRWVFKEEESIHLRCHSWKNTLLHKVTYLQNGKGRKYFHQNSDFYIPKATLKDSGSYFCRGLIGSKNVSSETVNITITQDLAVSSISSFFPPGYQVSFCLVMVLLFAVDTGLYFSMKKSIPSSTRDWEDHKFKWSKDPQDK
The assay can be described thus: flow cytometry on cyCD16 CHO cells (cAg_36), one-site fit of MFI, Exp. 1. The protocol: as §2, §3

Assay [4] concerns the target T1, cynomolgus FOLR1 expressed on CHO cells …. The assay can be described thus: flow cytometry on cyFOLR1 CHO cells (cAg_126), one-site fit of MFI, Exp. 3. The protocol: as §1
(§4) Binding of antibody constructs to huFOLR1-as well as cyFOLR1-transfected CHO cells was measured by flow cytometry. Equilibrium dissociation constants (KD) of antibody binding were calculated by plotting MFI values and fitting a non-linear regression model for one-site binding to hyperbolic dose-response curves using GraphPad Prism.

Assay [5] deals with T4, human FOLR1 expressed on CHO cells (cAg_125) (human, UniProt P15328 25-234).
T4 construct: whole, on cells; also called huFOLR1
T4 sequence (P15328 25-234): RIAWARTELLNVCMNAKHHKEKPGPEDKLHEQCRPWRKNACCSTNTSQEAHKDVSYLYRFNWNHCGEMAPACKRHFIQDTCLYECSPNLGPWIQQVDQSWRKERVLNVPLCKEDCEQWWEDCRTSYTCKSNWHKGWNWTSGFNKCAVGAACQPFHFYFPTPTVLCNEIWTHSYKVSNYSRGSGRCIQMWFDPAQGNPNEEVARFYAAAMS
Put plainly: flow cytometry on huFOLR1-transfected CHO cells (cAg_125), on ice, FITC goat anti-human IgG detection. The protocol: as §1

The target of assay [6] is T2, human CD16A (158V) expressed on CHO …. The assay can be described thus: flow cytometry on huCD16A (158V) CHO cells (cAg_35), one-site fit of MFI, Exp. 1. The protocol: as §2, §3
Assay [7] has the same target. Put plainly: flow cytometry on huCD16A (158V) CHO cells (cAg_35), one-site fit of MFI, mean. Here is the method:
as §2, §3

The target is the same in assay [8]. The assay can be described thus: flow cytometry on huCD16A (158V) CHO cells (cAg_35), one-site fit of MFI, Exp. 3. The protocol:
as §2, §3

The target of assay [9] is T4, human FOLR1 expressed on CHO cells …. Put plainly: flow cytometry on huFOLR1 CHO cells (cAg_125), one-site fit of MFI, mean. The protocol: as §1, §4
Assay [10] shares this target. The assay can be described thus: flow cytometry on huFOLR1 CHO cells (cAg_125), one-site fit of MFI, Exp. 3. The protocol:
as §1, §4

The target of assay [11] is T5, human CD16A (158F) expressed on CHO cells (cAg_34) (human, UniProt P08637 17-254).
T5 construct: also called huCD16A-transfected CHO cells
T5 sequence (P08637 17-254 limits assumed): as the sequence (P08637 17-254 F176V limits assumed) above, with V160F counted along it
Put plainly: flow cytometry on huCD16A (158F) CHO cells (cAg_34), one-site fit of MFI, Exp. 1. The protocol:
as §2, §3

Assay [12] addresses T1, cynomolgus FOLR1 expressed on CHO cells …. The assay can be described thus: flow cytometry on cyFOLR1 CHO cells (cAg_126), one-site fit of MFI, Exp. 1. The protocol:
as §1, §4

Assay [13] addresses T3, cynomolgus CD16 expressed on CHO cells …. Put plainly: flow cytometry on cyCD16 CHO cells (cAg_36), one-site fit of MFI, Exp. 2. The protocol:
as §2, §3

The target in assay [14] is T1, cynomolgus FOLR1 expressed on CHO cells …. Put plainly: flow cytometry on cyFOLR1 CHO cells (cAg_126), one-site fit of MFI, mean. Here is the method: as §1, §4
Assay [15] has as its target T5, human CD16A (158F) expressed on CHO …. Put plainly: flow cytometry on huCD16A (158F)-transfected CHO cells (cAg_34), on ice, FITC goat anti-human IgG detection. The protocol:
as §2

For assay [16] the target is unchanged. Put plainly: flow cytometry on huCD16A (158F) CHO cells (cAg_34), one-site fit of MFI, Exp. 2. The protocol:
as §2, §3

In assay [17] the target is T3, cynomolgus CD16 expressed on CHO cells …. The assay can be described thus: flow cytometry on cyCD16-transfected CHO cells (cAg_36), on ice, FITC goat anti-human IgG detection. The protocol:
as §2

T1 sequence (A0A2K5U044 entry or part of it): as the sequence (P15328 25-234) above, with I2T, W4R, R37K, A146P, H171Y counted along it

B1: scFv-IgAb_387 (FOLR1_1×CD16a3) (bispecific antibody)
heavy: EVQLVESGGGVVQPGRSLRLSCSASGFTFSGYGLSWVRQAPGKGLEWVAMISSGGSYTYYADSVKGRFAISRDNAKNTLFLQMDSLRPEDTGVYFCARHGDDPAWFAYWGQGTPVTVSSASTKGPSVFPLAPSSKSTSGGTAALGCLVKDYFPEPVTVSWNSGALTSGVHTFPAVLQSSGLYSLSSVVTVPSSSLGTQTYICNVNHKPSNTKVDKKVEPKSCDKTHTCPPCPAPEFEGGPSVFLFPPKPKDTLMISRTPEVTCVVVAVSHEDPEVKFNWYVDGVEVHNAKTKPREEQYNSTYRVVSVLTVLHQDWLNGKEYKCKVSNKALPAPIEKTISKAKGQPREPQVYTLPPSREEMTKNQVSLTCLVKGFYPSDIAVEWESNGQPENNYKTTPPVLDSDGSFFLYSKLTVDKSRWQQGNVFSCSVMHEALHNHYTQKSLSLSPGGGGGSGGGGSGGGGSGGGGSGGGGSGGGGSSYELTQPLSVSVALGQTARITCGGNNIGSKSVHWYQQKPGQAPVLVIYQDKKRPSGIPERFSGSNSGNTATLTISRAQAGDEADYYCQVWDDYIVLFGCGTKLTVLGGSGGSGGSGGSGGSGGSGGSQVQLVQSGAEVKKPGASVKVSCKASGYTFTNYYMQWVRQAPGQCLEWMGIINPSGGVTSYAQKFQGRVTMTRDTSTSTVYMELSSLRSEDTAVYYCARGSAYYYDFADYWGQGTLVTVSSG
light: DIQLTQSPSSLSASVGDRVTITCSVSSSISSNNLHWYQQKPGKAPKPWIYGTSNLASGVPSRFSGSGSGTDYTFTISSLQPEDIATYYCQQWSSYPYMYTFGQGTKVEIKRTVAAPSVFIFPPSDEQLKSGTASVVCLLNNFYPREAKVQWKVDNALQSGNSQESVTEQDSKDSTYSLSSTLTLSKADYEKHKVYACEVTHQGLSSPVTKSFNRGEC
modifications: Chemically biotinylated (NHS-PEG4-biotin) in Example 22 only.
notes: Tetravalent bispecific scFv-IgAb; also called FOLR1×CD16A scFv-IgAb_387; FOLR1/CD16A scFv-IgAb_387; copies: 2 + 2
Consider B1, for which the “EC50 (read off the curve)” value in [1] is ~20 nM; in [5] it was ~40 nM; in [15] it was ~20 nM; in [17] it was ~30 nM. The Kd was 29.1 nM in assay [2]; 26.6 nM in assay [3]; 18.8 nM in assay [4]; 15.8 nM in [6]; 30.8 nM in [7]; 47.5 nM in [8]. The dissociation constant (Kd) was 35.8 nM in [9]; 40.6 nM in assay [10]; 16 nM in assay [11]; 14.9 nM in assay [12]; 26.2 nM in assay [13]; 16.3 nM in assay [14]. The molecule also showed a Kd in [16] of 28.5 nM.

B2: scFv-IgAb_381 (FOLR1_1×CD16a4) (bispecific antibody)
chain 1: EVQLVESGGGVVQPGRSLRLSCSASGFTFSGYGLSWVRQAPGKGLEWVAMISSGGSYTYYADSVKGRFAISRDNAKNTLFLQMDSLRPEDTGVYFCARHGDDPAWFAYWGQGTPVTVSSASTKGPSVFPLAPSSKSTSGGTAALGCLVKDYFPEPVTVSWNSGALTSGVHTFPAVLQSSGLYSLSSVVTVPSSSLGTQTYICNVNHKPSNTKVDKKVEPKSCDKTHTCPPCPAPEFEGGPSVFLFPPKPKDTLMISRTPEVTCVVVAVSHEDPEVKFNWYVDGVEVHNAKTKPREEQYNSTYRVVSVLTVLHQDWLNGKEYKCKVSNKALPAPIEKTISKAKGQPREPQVYTLPPSREEMTKNQVSLTCLVKGFYPSDIAVEWESNGQPENNYKTTPPVLDSDGSFFLYSKLTVDKSRWQQGNVFSCSVMHEALHNHYTQKSLSLSPGGGGGSGGGGSGGGGSGGGGSGGGGSGGGGSSYELTQPLSVSVALGQTARITCGGHNIGSKNVHWYQQKPGQAPVLVIYQDNKRPSGIPERFSGSNSGNTATLTISRAQAGDEADYYCQVWDNYNVLFGCGTKLTVLGGSGGSGGSGGSGGSGGSGGSQVQLVQSGAEVKKPGASVKVSCKASGYTFTSYYMHWVRQAPGQCLEWMGAIEPTYGSTSYAQKFQGRVTMTRDTSTSTVYMELSSLRSEDTAVYYCARGSAYYYDFADYWGQGTLVTVS
chain 2: B1 light
notes: also called FOLR1×CD16A scFv-IgAb_381
In the case of B2, the “EC50 (read off the curve)” value in [1] was ~10 nM; in [5] it was ~30 nM; in assay [15], ~30 nM; in assay [17] it was ~40 nM. The Kd in assay [2] came to 43.3 nM; in assay [3], 38.6 nM; in assay [4] it was 14 nM; in [6], 22 nM; in assay [7] it was 43 nM; in assay [8], 63.7 nM. Further, the Kd amounted to 24.7 nM in [9]; 29.3 nM in assay [10]; 22.1 nM in [11]; 11.5 nM in assay [12]; 31.7 nM in assay [13]; 12.4 nM in [14]. Moreover, in [16], the Kd was 29.3 nM.

The values above are taken from patent US20240417475A1 (AFFIMED, published 2024).
